The values that follow come from patent US5786145A, “Oligonucleotide competitors for binding of HIV RRE to REV protein and assays for screening inhibitors of this binding” (Medical Research Council, priority 1995, dated 1998).

For data set [1], the system named is rev protein. The experiment in a line: Competition filter binding against 32P-labelled R7 (FIGS. 13, 17). The arrangement: species or system HIV-1. The following applies: 1.5 nM labelled R7, 24 nM rev, 0-60 nM competitor. On the procedure: In these experiments, uniformly ^32 P-labelled R7 (1.5 nM) was competed against 0-60 nM unlabelled competitor RNA in the presence of 24 nM rev protein.
The mixtures for competition binding (0.5 ml) included 1.5 nM ^32 P-labelled R7 (ca. 20,000 cpm), 24 nM rev protein, 1.5 ug/ml calf thymus DNA, 0.67 ug/ml yeast rRNA, varying concentrations (0-60 nM) of unlabelled competitor RNA and 80 units/ml RNasin in TK buffer (50 mM Tris-HCl (pH7.9) and 20 mM KCl). Binding was allowed to take place for more than 15 min on ice, and each mixture was passed through a Millipore GS filter (a 2.5 cm disk with a pore size of 0.22 um) prewashed twice with 0.6 ml of ice-cold TK buffer. The filter was washed with 0.6 ml of cold TK buffer and dried. The radioactivity retained on the filter was counted by liquid scintillation, and the results were plotted on a graph (FIG. 13).

Data set [2] relates to rev protein. The experiment in a line: Saturation filter binding of rev to labelled RNA transcripts. The arrangement: species or system HIV-1. The following applies: for rev binding, result in words: saturation filter binding, 0 to 10 nM rev; for Kd: saturation filter binding of T7 transcripts, read-out: Kd for rev binding; for % RNA bound (10 nM rev): Table I, 50 mM KCl. On the procedure:
Rev protein was expressed and purified as described (33) or further purified by chromatography on Heparin-Sepharose. Rev was applied to Heparin columns in a buffer containing 200 mM NaCl/50mM Tris-HCl pH8.0/1 mM DTT/0.1 mM EDTA 0.1% Triton X-100 and eluted in buffer containing 2M NaCl. After gel filtration on Superose 6 (prep grade) columns equilibrated with 200 mM NaCl/50 mM Tris-HCl pH8.0/1 mM DTT/0.1 mM EDTA, the rev protein appeared homogeneous on SDS-polyacrylamide gels and free of RNA contaminants. Rev concentrations were determined by amino acid analysis of the purified protein.
DNA inserts containing RRE-related sequences were cloned between the EcoRI (5') and HindIII (3') sites of pGEM 1, either by cloning PCR products or by cloning annealed pairs of synthetic oligonucleotides. RNA transcripts for binding experiments were prepared by transcription of HindIII cut plasmids using T7 RNA polymerase and purified by gel electrophoresis. These transcripts carry a 5' extension of 15 nucleotides contributed by the vector and an extra A residue at the 3' end from the HindIII site, as described above.
For filter binding assays, each reaction mixture contained 20 pg of uniformly labelled RNA probe (approximately 500 cpm/pg RNA), […] sonicated salmon sperm DNA, […] yeast tRNA, 40 units RNasin (Promega) in […] TK buffer (43 mM Tris-HCl pH8.0, 50 mM KCl). Incubation was at 4° C. for 15 minutes in the presence of 0 to 10 nM purified rev protein. To measure binding, each reaction mixture was applied under gentle vacuum to a 0.45 um Millipore filter which had been pre-wetted with TK buffer. The filters were washed with […] TK buffer, dried, and radioactivity counted by liquid scintillation.
Filter binding assays contained 20 pg uniformly labelled RNA probe (500 dpm per pg RNA), 1 μg salmon sperm DNA, 0.45 μg yeast tRNA and 40 units RNasin (Promega) in 500 μl buffer containing 43 mM Tris-HCl pH 8.0, 50 mM KCl. Mutations in the purine-rich "bubble" sequence (numbered as shown in FIG. 2) were introduced into the R33 stem-loop structure (FIG. 3d) by site-directed mutagenesis.

In data set [3] the target is T1, HIV-1 Rev (Human immunodeficiency virus 1, UniProt P04618 P04618:1-116). The experiment in a line: filter; non-specific binding only. The following applies: tags: none stated, heparin-Sepharose and Superose 6 purified, chain copies: oligomer (tetramer likely; about 4 per RBC6, 6-8 per full-length RRE at 50 mM KCl) stated, label: 32P uniform.
Data set [4] concerns the target T1, HIV-1 Rev. The data set is described as follows: competition; D1/2 vs labelled RRE RNA, 17 nM rev. The settings on record: tags: none stated; heparin-Sepharose and Superose 6 purified; chain copies: oligomer (tetramer likely; about 4 per RBC6, 6-8 per full-length RRE at 50 mM KCl) stated; label: 32P uniform; stem-loop with altered bubble.

Changes are numbered by the printed parent chain. “Also recorded” adds a separate entry of the source.

For the molecule “TWJ-C: three annealed synthetic oligoribonucleotides forming bubble stabilized by three-way junction; U85 replaced by C (chain 1 GCACUAUGGGCGCAGC; chain 2 GCUGCGGUACAGGCCAGA; chain 3 UCUGGCAUAGUGC; RNA, backbone not given here)”, the “competition for rev binding against labelled R7, result in words” value (“competition for rev binding” below) in the data set with rev protein [1] is recorded as “compete for rev binding with the same affinity”.
“RBC4: chemically synthesized RNA duplex, purine-rich bubble with 4 base pairs in the stem on each side (chain 1 UGUGGGCGCA; chain 2 UGCGGUACAC; RNA, backbone not given here)”: in the data set with rev protein [1], the “competition for rev binding” value is recorded as “no competitive binding abilities”.
Turning to “RBC5: chemically synthesized RNA duplex, purine-rich bubble with 5 base pairs on each side (chain 1 GUGUGGGCGCAG; chain 2 CUGCGGUACACA; RNA, backbone not given here)”, in the data set with rev protein [1], the “competition for rev binding” value is recorded as “less”.
Turning to “TWJ-U: three annealed synthetic oligoribonucleotides forming three-way junction; authentic HIV-1ARV2 sequence with G:U base pair (chain 1 GCACUAUGGGCGCAGC; chain 2 GCUGCGGUACAGGCCAGA; chain 3 UCUGGUAUAGUGC; RNA, backbone not given here)”, the “competition for rev binding” value in the data set on rev protein [1] is given as “compete for rev binding with the same affinity”.
On to “R30: base pairing in the upper stem structure altered to give the anti-sense sequence (GGGAGACCGGAAUUCUGGGCGCAGCGUCAUUGACACUGCGGUACAGGCA; chemistry not given here)”, for which the “rev binding, result in words” value with rev protein [2] is listed as “normal rev binding activity”.
Usually Kd stands for a measure of binding affinity in units of concentration. Regarding “R22: residue A56 is deleted from R20 (GGGAGACCGGAAUUCUGGGCGCAGUGUCAUUGACGCUGCGGUACAGGCA; chemistry not given here)”, in the data set on rev protein [2], the Kd lay within 1 to 3 nM.
The same measure, in the same setting: the same measure for “R19: transcript containing RRE sequences 33 to 66 (GGGAGACCGGAAUUCUGGGCGCAGUGUCAUUGACGCUGACGGUACAGGCA; unmodified RNA)”: 1 to 3 nM.
“R36 (GGGAGACCGGAAUUCUGGGCGCAGUGUCAUUGACGCUGCGCAGAAUUCCGGCA; chemistry not given here)”: in the data set with rev protein [2], the “% RNA bound (10 nM rev)” value was found to be 4% and the “rev binding, result in words” value is recorded as “loss of rev binding”.
With “R29: residues altered in the apex of the loop to give the anti-sense sequence (GGGAGACCGGAAUUCUGGGCGCAGUGUCAAUGACGCUGACGGUACAGGCA; chemistry not given here)”, the “rev binding, result in words” value in the data set on rev protein [2] is on record as “normal rev binding activity”.
For the molecule “R37 (GGGAGACCGGAAUUCUAAACGCAGUGUCAUUGACGCUGCGGUAUAGAAUUCCGGCA; chemistry not given here)”, in the data set on rev protein [2], the “% RNA bound (10 nM rev)” value is 5% and the “rev binding, result in words” value was “abolished specific rev binding”.
For the molecule “R38: stem-loop structure C39 to A56 replaced by the stable loop sequence CUUCGG (GGGAGACCGGAAUUCUGGGCGCUUCGGCGGUACAGA; chemistry not given here)”, the Kd with rev protein [2] fell in the range of 1 to 3 nM.
Consider “RBC2-6X: only two oligonucleotides annealed, containing all sequences from the bubble region (chain 1 GCACUAUGGGCGCAGC; chain 2 GCUGCGGUACAGGCCAGA; chemistry not given here)”, for which the “competition for rev binding” value is reported as “not sufficiently stable to form an effective rev binding site” in the data set with rev protein [1] and “unable to compete effectively” in the data set with rev protein [1] (listed as RBC2,6X).

B1: 26-72: RRE fragment 26-72 T7 transcript (nucleic acid)
chain: GGGAGACCGGAAUUCAGCACUAGGGCGCAGUGUCAUUGACGCUGAGGGUACAGGCCAGACAAUUAUA
modifications: unmodified RNA
notes: RRE fragment 26-72 T7 transcript
Consider B1, for which the “rev binding, result in words” value in the data set on rev protein [2] is recorded as “does not bind rev”.

B2: 26-92: RRE fragment 26-92 T7 transcript (nucleic acid)
chain: GGGAGACCGGAAUUCAGCACUAUGGGCGCAGUGUCAUUGACGCUGACGGUACAGGCCAGACAAUUAUUGUCUGGUAUAGUGCA
modifications: unmodified RNA
notes: RRE fragment 26-92 T7 transcript
For the molecule B2, the “rev binding, result in words” value with rev protein [2] is reported as “same affinity as the full-length RRE sequence; also recorded: Identical binding behaviour”.

B3: R34 (dG35-G36) (ssRNA)
RNA: GGGAGACCGGAAUUCUGCGCAGUGUCAUUGACGCUGCGGUACAGAAUUCCGGC
By IC50 is commonly meant the concentration needed to halve the response being measured. A lower IC50 goes with greater potency in that assay. Consider B3, for which the binding signal with HIV-1 Rev [3] (stem-loop with altered bubble) is 3 % RNA bound at 10 nM rev. This molecule also showed an IC50 in the data set with HIV-1 Rev [4] of over 250 nM.

B4: R49 (ssRNA)
RNA: GGGAGACCGGAAUUCUGGGCGCAGUGUCAUUGACGCUGCGUACAGAAUUCCGGCA
modifications: [none]
In turn, B4 displayed a binding signal in the data set with HIV-1 Rev [3] of 2 % RNA bound at 10 nM rev.

B5: R46 (ssRNA)
RNA: B4 RNA with U41G, A42U
modifications: [none]
Molecule B5 showed a binding signal with HIV-1 Rev [3] of 1 % RNA bound at 10 nM rev.

B6: R45 (ssRNA)
RNA: B4 RNA with U41G
modifications: [none]
The molecule B6 showed a binding signal in the data set with HIV-1 Rev [3] of 6 % RNA bound at 10 nM rev.

B7: R36 (dG59-A61) (ssRNA)
RNA: GGGAGACCGGAAUUCUGGGCGCAGUGUCAUUGACGCUGCGCAGAAUUCCGGCA
Molecule B7 had a binding signal with HIV-1 Rev [3] (stem-loop with G,G bulge) of 4 % RNA bound at 10 nM rev.

B8: R58 (ssRNA)
RNA: GGGAGACCGGAAUUCUGGGCGCAGUGUCAUUGACGCUGCGAUACAGAAUUCCGGCA
modifications: [none]
Regarding B8, the binding signal with HIV-1 Rev [3] amounted to 6 % RNA bound at 10 nM rev.

B9: R53 (ssRNA)
RNA: B8 RNA with A41G, A43G
modifications: [none]
For the molecule B9, the binding signal with HIV-1 Rev [3] came to 5 % RNA bound at 10 nM rev.

B10: R56 (ssRNA)
RNA: B8 RNA with C20U, G40A, A41G
modifications: [none]
For the molecule B10, the binding signal with HIV-1 Rev [3] was found to be 6 % RNA bound at 10 nM rev.

B11: R47 (ssRNA)
RNA: B8 RNA with G18A, A41G
modifications: [none]
Turning to B11, in the data set with HIV-1 Rev [3], the binding signal amounted to 6 % RNA bound at 10 nM rev.

B12: R37 (ssRNA)
RNA: B8 RNA with G17A, G18A, G19A, A41G, C44U
On to B12, for which, in the data set with HIV-1 Rev [3] (stem-loop with altered bubble), the binding signal worked out at 5 % RNA bound at 10 nM rev.

B13: R41 (ssRNA)
RNA: B8 RNA with C20G, G40C, A41G
modifications: [none]
B13 came in with a binding signal in the data set with HIV-1 Rev [3] of 2 % RNA bound at 10 nM rev.

B14: R40 (ssRNA)
RNA: B8 RNA with G17C, A41G, C44G
modifications: [none]
B14 showed a binding signal with HIV-1 Rev [3] of 3 % RNA bound at 10 nM rev.

B15: 1-96: RRE fragment 1-96 T7 transcript (nucleic acid)
chain: GGGAGACCGGAAUUCCCUUGGGUUCUUGGGAGCAGCAGGAAGCACUAUGGGCGCAGUGUCAUUGACGCUGACGGUACAGGCCAGACAAUUAUUGUCUGGUAUAGUGCAACA
modifications: unmodified RNA
notes: RRE fragment 1-96 T7 transcript
For the molecule B15, the “rev binding, result in words” value with rev protein [2] is “same affinity as the full-length RRE sequence”.
